Experiment [1] deals with CSIF. Nature of the experiment: Serum-free medium development: sulforhodamine B stain and protein content after 72 hours. The following applies: supplement added to minimal serum-free medium; bFGF 10 ng/ml, EGF 5 ng/ml, PGE2 0.01 μM, GH 10 ng/ml. The experiment is classed as cell-based, chicken. The protocol:
FIGS. 3A-F depict the development and identification of serum-free medium for CSIF propagation. Shown are sulforhodamine B stain (FIGS. 3A-E) and protein content quantification (FIG. 3F) following 72 hours of culture with 15% serum (“FBS”), minimal serum-free medium (MIN) alone (FIG. 3B) or with 10 ng/ml basic Fibroblast Growth Factor (bFGF, FIG. 3C), 5 ng/ml Epidermal Growth Factor (EGF, FIG. 3D), 0.01 μM Prostaglandin E2 (PGE2, FIG. 3E), or 10 ng/ml Growth Hormone. Serum-free medium (SFM) contained MIN medium supplemented with bFGF (10 ng/ml), EGF (5 ng/ml), and PGE2 ([…]).
(§1) To develop a serum-free medium that supports the culture of CEF and CS IF, the present inventor formulated a minimal medium composed of DMEM/F12 supplemented with 0.1 μM dexamethasone, 10 μg/ml insulin, 5.5 μg/ml transferrin, and 5 ng/ml selenium (ITS), 12 μM linoleic and 12 μM oleic acids, and 2 mM of L-Analyl-L-Glutamine. Cells were plated in FBS containing medium, and transferred to minimal medium after overnight attachment. Basal medium was supplemented with growth factors and hormones showing that while heparin and T3 had little effect of CSIF growth (data not shown), the addition of basic Fibroblast Growth Factor (bFGF, 10 ng/ml) was essential (FIGS. 3C and 3F), showing 20±2 hours doubling time (data not shown).

The test system of experiment [2] is primary chicken embryonic fibroblasts (CEF). Nature of the experiment: Proliferation of primary CEF in serum-free media / with supplements. The settings on record: serum-free medium, or minimal medium plus supplement (EGF 5 ng/ml, PGE2 0.01 μM, GH 10 ng/ml). The experiment is classed as cell-based. On the procedure: as §1, with “The CSIFs readily grow on tissue culture plastic in DMEM/F12 medium supplemented with 15% FBS, and 2 mM of […] (FIG. 2D). There are several serum-free medium formulations for the growth of human and mouse fibroblasts, including PCS-201-040 (ATCC) and […] To” for “To”, “[…].” for “L-Analyl-L-Glutamine.”

B1: EGF: epidermal growth factor (protein, UniProt P01133 23-1207, looked up)
Pro-epidermal growth factor: PQHWSCPEGTLAGNGNSTCVGPAPFLIFSHGNSIFRIDTEGTNYEQLVVDAGVSVIMDFHYNEKRIYWVDLERQLLQRVFLNGSRQERVCNIEKNVSGMAINWINEEVIWSNQQEGIITVTDMKGNNSHILLSALKYPANVAVDPVERFIFWSSEVAGSLYRADLDGVGVKALLETSEKITAVSLDVLDKRLFWIQYNREGSNSLICSCDYDGGSVHISKHPTQHNLFAMSLFGDRIFYSTWKMKTIWIANKHTGKDMVRINLHSSFVPLGELKVVHPLAQPKAEDDTWEPEQKLCKLRKGNCSSTVCGQDLQSHLCMCAEGYALSRDRKYCEDVNECAFWNHGCTLGCKNTPGSYYCTCPVGFVLLPDGKRCHQLVSCPRNVSECSHDCVLTSEGPLCFCPEGSVLERDGKTCSGCSSPDNGGCSQLCVPLSPVSWECDCFPGYDLQLDEKSCAASGPQPFLLFANSQDIRHMHFDGTDYGTLLSQQMGMVYALDHDPVENKIYFAHTALKWIERANMDGSQRERLIEEGVDVPEGLAVDWIGRRFYWTDRGKSLIGRSDLNGKRSKIITKENISQPRGIAVHPMAKRLFWTDTGINPRIESSSLQGLGRLVIASSDLIWPSGITIDFLTDKLYWCDAKQSVIEMANLDGSKRRRLTQNDVGHPFAVAVFEDYVWFSDWAMPSVMRVNKRTGKDRVRLQGSMLKPSSLVVVHPLAKPGADPCLYQNGGCEHICKKRLGTAWCSCREGFMKASDGKTCLALDGHQLLAGGEVDLKNQVTPLDILSKTRVSEDNITESQHMLVAEIMVSDQDDCAPVGCSMYARCISEGEDATCQCLKGFAGDGKLCSDIDECEMGVPVCPPASSKCINTEGGYVCRCSEGYQGDGIHCLDIDECQLGEHSCGENASCTNTEGGYTCMCAGRLSEPGLICPDSTPPPHLREDDHHYSVRNSDSECPLSHDGYCLHDGVCMYIEALDKYACNCVVGYIGERCQYRDLKWWELRHAGHGQQQKVIVVAVCVVVLVMLLLLSLWGAHYYRTQKLLSKNPKNPYEESSRDVRSRRPADTEDGMSSCPQPWFVVIKEHQDLKNGGQPVAGEDGQAADGSMQPTSWRQEPQLCGMGTEQGCWIPVSSDKGSCPQVMERSFHMPSYGTQTLEGGVEKPHSLLSANPLWQQRALDPPHQMELTQ
modifications: Pro-epidermal growth factor
With B1, in experiment [1], the “Effect on CSIF growth / proliferation” value is “supported the proliferation”. Moreover, the “Proliferation of primary CEF” value in experiment [2] is “supported the proliferation”.

(Values after patent publication US12325866B2, “Systems and methods for growing cells in vitro” (Yissum Research Development Company of the Hebrew …, priority 2016, dated 2025).)
